According to patent US20200270588A1, “GLUCOSYL TRANSFERASE POLYPEPTIDES AND METHODS OF USE” (Syngenta Participations AG, priority 2017, published 2020):
Substitutions are numbered along the chain they refer to. Names and notes keep the numbering of the source.

B1: A280V: bx9 SEQ ID NO:1 mutant (protein)
chain: MASSRTGAGAGGRVVVFPFPFQGHFNPVMRLARALHARGLAITVFHSGALDPADYPADYRFVPVTVEADPKLLASEDIAAIVTTLNASCDAPFRARLSALLAAEGRDSVRCVFTDVSWNAVLTASSDLGVPALGMMTASAASLRDYMAYRTLIDKGYLPVKEERKEDPVPELPPYLVKDLLRVDTSDLEEFAELLARTVTAARRASGLIFNTFPLIETDTLAEIHKALSVPVFAVAPLNKLVPTATASLHGVVQADRGCLQWLDTQQPGSVLYVSFGSMVAMDPHEFVELAWGLADSKRPFVWVVRPNLIRGFESGALPDGVEDEVRGRGIVVAWAPQEEVLAHPAVGGFLTHNGWNSTVEAISEGVPMVCCPRHGDQFGNMRYVCDVWKVGTELVGEQLERGQVKAAIDRLFGTKEGEEIKERMKEFKIAAAKGIGIGVDVDETASPRTDLTDLVDLIKSF
modifications: Zea mays
B2: V370L: bx9 SEQ ID NO:1 mutant (protein)
chain: B1 chain with V280A, V370L
modifications: Zea mays
B3: Q22P: bx9 SEQ ID NO:1 mutant (protein)
chain: B1 chain with Q22P, V280A
modifications: Zea mays
B4: I363W: bx9 SEQ ID NO:1 mutant (protein)
chain: B1 chain with V280A, I363W
modifications: Zea mays
B5: A334K: bx9 SEQ ID NO:1 mutant (protein)
chain: B1 chain with V280A, A334K
modifications: Zea mays
B6: A79S: bx9 SEQ ID NO:1 mutant (protein)
chain: B1 chain with A79S, V280A
modifications: Zea mays
B7: A281S: bx9 SEQ ID NO:1 mutant (protein)
chain: B1 chain with V280A, A281S
modifications: Zea mays
B8: V370I: bx9 SEQ ID NO:1 mutant (protein)
chain: B1 chain with V280A, V370I
modifications: Zea mays
B9: V370A: bx9 SEQ ID NO:1 mutant (protein)
chain: B1 chain with V280A, V370A
modifications: Zea mays
B10: I363F: bx9 SEQ ID NO:1 mutant (protein)
chain: B1 chain with V280A, I363F
modifications: Zea mays
B11: A281L: bx9 SEQ ID NO:1 mutant (protein)
chain: B1 chain with V280A, A281L
modifications: Zea mays
B12: A281V: bx9 SEQ ID NO:1 mutant (protein)
chain: B1 chain with V280A, A281V
modifications: Zea mays
B13: A79G: bx9 SEQ ID NO:1 mutant (protein)
chain: B1 chain with A79G, V280A
modifications: Zea mays
B14: C372I: bx9 SEQ ID NO:1 mutant (protein)
chain: B1 chain with V280A, C372I
modifications: Zea mays
B15: I363S: bx9 SEQ ID NO:1 mutant (protein)
chain: B1 chain with V280A, I363S
modifications: Zea mays
B16: I363T: bx9 SEQ ID NO:1 mutant (protein)
chain: B1 chain with V280A, I363T
modifications: Zea mays
B17: V116L: bx9 SEQ ID NO:1 mutant (protein)
chain: B1 chain with V116L, V280A
modifications: Zea mays
B18: A79N: bx9 SEQ ID NO:1 mutant (protein)
chain: B1 chain with A79N, V280A
modifications: Zea mays
B19: I363C: bx9 SEQ ID NO:1 mutant (protein)
chain: B1 chain with V280A, I363C
modifications: Zea mays
B20: Q22M: bx9 SEQ ID NO:1 mutant (protein)
chain: B1 chain with Q22M, V280A
modifications: Zea mays
B21: A79E: bx9 SEQ ID NO:1 mutant (protein)
chain: B1 chain with A79E, V280A
modifications: Zea mays
B22: E76M: bx9 SEQ ID NO:1 mutant (protein)
chain: B1 chain with E76M, V280A
modifications: Zea mays
B23: F21Y: bx9 SEQ ID NO:1 mutant (protein)
chain: B1 chain with F21Y, V280A
modifications: Zea mays
B24: V370C: bx9 SEQ ID NO:1 mutant (protein)
chain: B1 chain with V280A, V370C
modifications: Zea mays
B25: V370M: bx9 SEQ ID NO:1 mutant (protein)
chain: B1 chain with V280A, V370M
modifications: Zea mays
B26: I363A: bx9 SEQ ID NO:1 mutant (protein)
chain: B1 chain with V280A, I363A
modifications: Zea mays
B27: G376C: bx9 SEQ ID NO:1 mutant (protein)
chain: B1 chain with V280A, G376C
modifications: Zea mays
B28: Q22H: bx9 SEQ ID NO:1 mutant (protein)
chain: B1 chain with Q22H, V280A
modifications: Zea mays
B29: A79Q: bx9 SEQ ID NO:1 mutant (protein)
chain: B1 chain with A79Q, V280A
modifications: Zea mays
B30: A281T: bx9 SEQ ID NO:1 mutant (protein)
chain: B1 chain with V280A, A281T
modifications: Zea mays
B31: V370T: bx9 SEQ ID NO:1 mutant (protein)
chain: B1 chain with V280A, V370T
modifications: Zea mays
B32: I363V: bx9 SEQ ID NO:1 mutant (protein)
chain: B1 chain with V280A, I363V
modifications: Zea mays

Assay: UDP luminescence plate assay of E. coli extracts, saturation mutants of SEQ ID NO: 1, herbicide V
Format: biochemical, Zea mays
Settings: improvement factor relative to w/t bx9 = 1.0, rounded to nearest 0.5; extract activity basis; compound V
Procedure: Competent BL21 (DE3) cells are transformed as in the foregoing examples and, following seed culturing, grown and autoinduced in plates in a 0.5-1 ml volume of autoinduction medium containing 50 ug/ml kanamycin. Plates are incubated at 37° C. and shaken at 900 rpm. Growth is monitored by taking 20 ul aliquots, diluting 10 fold into flat-bottomed 96 well microtiter plates and reading OD600n at t=0, 1, 2, 2½ and 3 hours if necessary. At a (corrected) OD600 nm˜0.2, plates are transferred to 20° C. and shaken overnight at 900 rpm in a Jencons VWR plate incubator. After ˜18-20 h the final OD600 readings are recorded and the plates centrifuged at 4600 rpm (bench top centrifuge) for 10 min at 4° C. The supernatant is discarded and the pellets then washed with 0.25 ml PBS by repeat centrifugation and removal of supernatant before freezing cell pellets at −80° C. To prepare extracts, plates are allowed to thaw for 30 min and then pellets are resuspended in 0.25 ml of a suitable lysis buffer (for example—50 mM Tris HCL buffer at pH 8.0, 5% glycerol containing 50 mM NaCl and lysonase) mixed, incubated at room temperature for a sufficient time for lysis to be near complete and then centrifuged to remove cell debris and 100 ul of supernatant extract removed to a 96 well V-shaped well plate and stored on ice prior to assay.
Optionally plate assays are stopped with brief heating to 95 C before returning to ice and addition of UDP-Glo detection reagent followed by incubation at lab temperature. […] In addition a UDP standard curve is run alongside each set of plate tests.
Making use of the ELISA assay it is then possible to calculate a specific activity (e.g. in Relative Luminescence Units (RLU)/min/ug bx protein) based upon the amount of each mutant bx9 polypeptide expressed in each well. […] The specific activity of the various test mutant extracts on the same plate are then expressed as a fraction of the specific activity of the w/t bx9 and thus the ‘improvement factor’ versus the w/t expressed as a decimal where, for example, ‘0.5’ means half the specific activity of the wild type and 2.0 means twice the specific activity of the wild type. However, as will be readily apparent to the skilled man, particularly in cases where the UDP assay signal was low (with poor signal to noise versus the background) and/or the ELISA measurement of bx protein also low such a method is prone to generate spurious high specific activity numbers and uncertain numbers.

Molecule | Preferred amino acid substitutions and (IF) based on RLU/min/ul | Most Preferred amino acid substitutions and (IF) based on RLU/min/ul
B1 | V(1.0) | –
B2 | T,C,L,M(1.0) | –
B3 | H,P,M(1.0) | –
B4 | S,T,F,W(1.5) | –
B5 | – | K,R(2.0)
B6 | 1.0 | –
B7 | S,T,V(1.0) | –
B8 | A,I(1.5) | –
B9 | A,I(1.5) | –
B10 | S,T,F,W(1.5) | –
B11 | L(1.5) | –
B12 | S,T,V(1.0) | –
B13 | 1.5 | –
B14 | I(1.0) | –
B15 | S,T,F,W(1.5) | –
B16 | S,T,F,W(1.5) | –

Molecule | Preferred amino acid substitutions and (IF) based on RLU/min/ul | Most Preferred amino acid substitutions and (IF) based on RLU/min/ul
B17 | L,I(1.0) | –
B18 | 1.0 | –
B19 | C(1.0) | –
B20 | H,P,M(1.0) | –
B21 | 1.5 | –
B22 | M(1.0) | –
B23 | – | Y(2.0)
B24 | T,C,L,M(1.0) | –
B25 | T,C,L,M(1.0) | –
B26 | – | A,V(2.0)
B27 | C,M(1.0) | –
B28 | H,P,M(1.0) | –
B29 | 1.0 | –
B30 | S,T,V(1.0) | –
B31 | T,C,L,M(1.0) | –
B32 | – | A,V(2.0)
